Laboratory results taken from paper PMC10786891, “Massively parallel profiling of RNA-targeting CRISPR-Cas13d”.

T1: EsCas13d, nuclease-dead (Eubacterium siraeum, UniProt B0MS50, R295A;H300A;R849A;H854A)
T1 sequence: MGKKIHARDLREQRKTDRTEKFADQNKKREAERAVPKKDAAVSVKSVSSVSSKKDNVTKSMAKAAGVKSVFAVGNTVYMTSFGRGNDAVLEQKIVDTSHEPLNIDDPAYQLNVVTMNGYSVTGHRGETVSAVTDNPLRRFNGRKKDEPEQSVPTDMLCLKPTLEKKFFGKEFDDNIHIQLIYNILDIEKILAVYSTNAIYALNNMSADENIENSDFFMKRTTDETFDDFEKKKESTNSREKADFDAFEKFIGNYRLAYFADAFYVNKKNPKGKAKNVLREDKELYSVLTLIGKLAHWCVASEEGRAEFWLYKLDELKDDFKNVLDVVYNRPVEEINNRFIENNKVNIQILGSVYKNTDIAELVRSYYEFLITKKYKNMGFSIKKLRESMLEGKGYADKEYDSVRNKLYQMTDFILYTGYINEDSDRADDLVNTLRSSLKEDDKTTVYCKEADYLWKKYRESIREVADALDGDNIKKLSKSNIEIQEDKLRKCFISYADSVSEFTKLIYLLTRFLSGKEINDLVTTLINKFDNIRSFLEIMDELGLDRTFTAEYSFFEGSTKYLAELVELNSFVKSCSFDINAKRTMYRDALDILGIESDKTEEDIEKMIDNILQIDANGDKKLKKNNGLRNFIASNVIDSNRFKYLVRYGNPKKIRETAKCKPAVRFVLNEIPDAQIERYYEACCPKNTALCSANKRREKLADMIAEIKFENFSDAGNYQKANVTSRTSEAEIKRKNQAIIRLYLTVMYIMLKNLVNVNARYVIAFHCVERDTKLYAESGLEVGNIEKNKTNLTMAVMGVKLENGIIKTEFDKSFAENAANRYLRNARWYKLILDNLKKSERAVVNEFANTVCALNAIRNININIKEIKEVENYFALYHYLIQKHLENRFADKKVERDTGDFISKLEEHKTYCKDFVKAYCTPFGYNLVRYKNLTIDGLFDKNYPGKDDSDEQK

B1: target 2 MT 5'PFS GUC 3'PFS CGA (mixed)
RNA 1: CACCCGUGCAAAAUUGCAGGGGUCUAAAACCUUCUCCAAAUUGUUUCAUCCU
RNA 2: GGGAAUGGAUCCACAUCUACGAAUUCGUCAGGAUGAAACAAUUUGGAGAAGCGAAGAUCGGAAGAGCACACGU
B2: target 2 MT 5'PFS GUC 3'PFS CGG (mixed)
RNA 1: CACCCGUGCAAAAUUGCAGGGGUCUAAAACCUUCUCCAAAUUGUUUCAUCCU
RNA 2: GGGAAUGGAUCCACAUCUACGAAUUCGUCAGGAUGAAACAAUUUGGAGAAGCGGAGAUCGGAAGAGCACACGU
B3: target 2 MT 5'PFS GGU 3'PFS UGU (mixed)
RNA 1: CACCCGUGCAAAAUUGCAGGGGUCUAAAACCUUCUCCAAAUUGUUUCAUCCU
RNA 2: GGGAAUGGAUCCACAUCUACGAAUUCGGUAGGAUGAAACAAUUUGGAGAAGUGUAGAUCGGAAGAGCACACGU
B4: target 2 MT 5'PFS AUA 3'PFS ACU (mixed)
RNA 1: CACCCGUGCAAAAUUGCAGGGGUCUAAAACCUUCUCCAAAUUGUUUCAUCCU
RNA 2: GGGAAUGGAUCCACAUCUACGAAUUCAUAAGGAUGAAACAAUUUGGAGAAGACUAGAUCGGAAGAGCACACGU
B5: target 2 MT 5'PFS UAU 3'PFS UAG (mixed)
RNA 1: CACCCGUGCAAAAUUGCAGGGGUCUAAAACCUUCUCCAAAUUGUUUCAUCCU
RNA 2: GGGAAUGGAUCCACAUCUACGAAUUCUAUAGGAUGAAACAAUUUGGAGAAGUAGAGAUCGGAAGAGCACACGU
B6: target 2 MT 5'PFS AUA 3'PFS ACG (mixed)
RNA 1: CACCCGUGCAAAAUUGCAGGGGUCUAAAACCUUCUCCAAAUUGUUUCAUCCU
RNA 2: GGGAAUGGAUCCACAUCUACGAAUUCAUAAGGAUGAAACAAUUUGGAGAAGACGAGAUCGGAAGAGCACACGU
B7: target 2 MT 5'PFS AUA 3'PFS ACA (mixed)
RNA 1: CACCCGUGCAAAAUUGCAGGGGUCUAAAACCUUCUCCAAAUUGUUUCAUCCU
RNA 2: GGGAAUGGAUCCACAUCUACGAAUUCAUAAGGAUGAAACAAUUUGGAGAAGACAAGAUCGGAAGAGCACACGU
B8: target 2 MT 5'PFS AUA 3'PFS ACC (mixed)
RNA 1: CACCCGUGCAAAAUUGCAGGGGUCUAAAACCUUCUCCAAAUUGUUUCAUCCU
RNA 2: GGGAAUGGAUCCACAUCUACGAAUUCAUAAGGAUGAAACAAUUUGGAGAAGACCAGAUCGGAAGAGCACACGU
B9: target 1 U8C,G12A (mixed)
RNA 1: CACCCGUGCAAAAAUGCAGGGGUCUAAAACUGAGCGGAUAACCUCUCUAUGG
RNA 2: GGGAAUGGAUCCACAUCUACGAAUUCGUACCAUAGAGAGAUUACCCGCUCACCGAGAUCGGAAGAGCACACGU
B10: target 1 insC 3' of 8,insC 3' of 3 (mixed)
RNA 1: CACCCGUGCAAAAAUGCAGGGGUCUAAAACUGAGCGGAUAACCUCUCUAUGG
RNA 2: GGGAAUGGAUCCACAUCUACGAAUUCGUACCAUAGAGAGGUUAUCCCGCUCCACCGAGAUCGGAAGAGCACACGU
B11: target 2 MT 5'PFS CUA 3'PFS UUC (mixed)
RNA 1: CACCCGUGCAAAAUUGCAGGGGUCUAAAACCUUCUCCAAAUUGUUUCAUCCU
RNA 2: GGGAAUGGAUCCACAUCUACGAAUUCCUAAGGAUGAAACAAUUUGGAGAAGUUCAGAUCGGAAGAGCACACGU
B12: target 2 MT 5'PFS CUA 3'PFS UUA (mixed)
RNA 1: CACCCGUGCAAAAUUGCAGGGGUCUAAAACCUUCUCCAAAUUGUUUCAUCCU
RNA 2: GGGAAUGGAUCCACAUCUACGAAUUCCUAAGGAUGAAACAAUUUGGAGAAGUUAAGAUCGGAAGAGCACACGU
B13: target 2 MT 5'PFS UGU 3'PFS ACG (mixed)
RNA 1: CACCCGUGCAAAAUUGCAGGGGUCUAAAACCUUCUCCAAAUUGUUUCAUCCU
RNA 2: GGGAAUGGAUCCACAUCUACGAAUUCUGUAGGAUGAAACAAUUUGGAGAAGACGAGAUCGGAAGAGCACACGU
B14: target 2 MT 5'PFS GGC 3'PFS AUU (mixed)
RNA 1: CACCCGUGCAAAAUUGCAGGGGUCUAAAACCUUCUCCAAAUUGUUUCAUCCU
RNA 2: GGGAAUGGAUCCACAUCUACGAAUUCGGCAGGAUGAAACAAUUUGGAGAAGAUUAGAUCGGAAGAGCACACGU
B15: target 2 MT 5'PFS UGU 3'PFS ACA (mixed)
RNA 1: CACCCGUGCAAAAUUGCAGGGGUCUAAAACCUUCUCCAAAUUGUUUCAUCCU
RNA 2: GGGAAUGGAUCCACAUCUACGAAUUCUGUAGGAUGAAACAAUUUGGAGAAGACAAGAUCGGAAGAGCACACGU
B16: target 2 MT 5'PFS CUA 3'PFS UUU (mixed)
RNA 1: CACCCGUGCAAAAUUGCAGGGGUCUAAAACCUUCUCCAAAUUGUUUCAUCCU
RNA 2: GGGAAUGGAUCCACAUCUACGAAUUCCUAAGGAUGAAACAAUUUGGAGAAGUUUAGAUCGGAAGAGCACACGU
B17: target 2 MT 5'PFS GGC 3'PFS AUG (mixed)
RNA 1: CACCCGUGCAAAAUUGCAGGGGUCUAAAACCUUCUCCAAAUUGUUUCAUCCU
RNA 2: GGGAAUGGAUCCACAUCUACGAAUUCGGCAGGAUGAAACAAUUUGGAGAAGAUGAGAUCGGAAGAGCACACGU
B18: target 2 MT 5'PFS UGU 3'PFS ACU (mixed)
RNA 1: CACCCGUGCAAAAUUGCAGGGGUCUAAAACCUUCUCCAAAUUGUUUCAUCCU
RNA 2: GGGAAUGGAUCCACAUCUACGAAUUCUGUAGGAUGAAACAAUUUGGAGAAGACUAGAUCGGAAGAGCACACGU
B19: target 2 MT 5'PFS GGC 3'PFS AUC (mixed)
RNA 1: CACCCGUGCAAAAUUGCAGGGGUCUAAAACCUUCUCCAAAUUGUUUCAUCCU
RNA 2: GGGAAUGGAUCCACAUCUACGAAUUCGGCAGGAUGAAACAAUUUGGAGAAGAUCAGAUCGGAAGAGCACACGU
B20: target 2 MT 5'PFS GGC 3'PFS AUA (mixed)
RNA 1: CACCCGUGCAAAAUUGCAGGGGUCUAAAACCUUCUCCAAAUUGUUUCAUCCU
RNA 2: GGGAAUGGAUCCACAUCUACGAAUUCGGCAGGAUGAAACAAUUUGGAGAAGAUAAGAUCGGAAGAGCACACGU
B21: target 1 C7G,U11G (mixed)
RNA 1: CACCCGUGCAAAAAUGCAGGGGUCUAAAACUGAGCGGAUAACCUCUCUAUGG
RNA 2: GGGAAUGGAUCCACAUCUACGAAUUCGUACCAUAGAGAGGGUAUGCGCUCACCGAGAUCGGAAGAGCACACGU
B22: target 2 MT 5'PFS GCC 3'PFS AUU (mixed)
RNA 1: CACCCGUGCAAAAUUGCAGGGGUCUAAAACCUUCUCCAAAUUGUUUCAUCCU
RNA 2: GGGAAUGGAUCCACAUCUACGAAUUCGCCAGGAUGAAACAAUUUGGAGAAGAUUAGAUCGGAAGAGCACACGU
B23: target 2 MT 5'PFS UGC 3'PFS ACA (mixed)
RNA 1: CACCCGUGCAAAAUUGCAGGGGUCUAAAACCUUCUCCAAAUUGUUUCAUCCU
RNA 2: GGGAAUGGAUCCACAUCUACGAAUUCUGCAGGAUGAAACAAUUUGGAGAAGACAAGAUCGGAAGAGCACACGU
B24: target 2 MT 5'PFS GAG 3'PFS UGA (mixed)
RNA 1: CACCCGUGCAAAAUUGCAGGGGUCUAAAACCUUCUCCAAAUUGUUUCAUCCU
RNA 2: GGGAAUGGAUCCACAUCUACGAAUUCGAGAGGAUGAAACAAUUUGGAGAAGUGAAGAUCGGAAGAGCACACGU
B25: target 2 MT 5'PFS GAG 3'PFS UGC (mixed)
RNA 1: CACCCGUGCAAAAUUGCAGGGGUCUAAAACCUUCUCCAAAUUGUUUCAUCCU
RNA 2: GGGAAUGGAUCCACAUCUACGAAUUCGAGAGGAUGAAACAAUUUGGAGAAGUGCAGAUCGGAAGAGCACACGU
B26: target 2 MT 5'PFS GAG 3'PFS UGU (mixed)
RNA 1: CACCCGUGCAAAAUUGCAGGGGUCUAAAACCUUCUCCAAAUUGUUUCAUCCU
RNA 2: GGGAAUGGAUCCACAUCUACGAAUUCGAGAGGAUGAAACAAUUUGGAGAAGUGUAGAUCGGAAGAGCACACGU
B27: target 2 MT 5'PFS UGC 3'PFS ACU (mixed)
RNA 1: CACCCGUGCAAAAUUGCAGGGGUCUAAAACCUUCUCCAAAUUGUUUCAUCCU
RNA 2: GGGAAUGGAUCCACAUCUACGAAUUCUGCAGGAUGAAACAAUUUGGAGAAGACUAGAUCGGAAGAGCACACGU
B28: target 2 MT 5'PFS GAA 3'PFS ACG (mixed)
RNA 1: CACCCGUGCAAAAUUGCAGGGGUCUAAAACCUUCUCCAAAUUGUUUCAUCCU
RNA 2: GGGAAUGGAUCCACAUCUACGAAUUCGAAAGGAUGAAACAAUUUGGAGAAGACGAGAUCGGAAGAGCACACGU

target: T1, EsCas13d, nuclease-dead; assay: crRNA (strand 1, pre-loaded); Mg2+; 40 mM Tris-HCl pH 7.5, 150 mM NaCl, 6 mM MgCl2, 1 mM DTT, 0.1% Tween-20, 0.2 mg/ml BSA; 25 C; 10 min per concentration, then washed; conditions: tags: His6-TwinStrep-SUMO cleaved; N-terminal SNAP kept (SNAP-Surface 488); label: 3' end held by stalled T7 RNA polymerase

Going from B1 to B2, the Kd rises from 8.7 ± 0.7 nM to 18.3 ± 2.1 nM (2.1-fold). The first binds more tightly here.

First: B3
Second: B4
The Kd of the first is 3.1-fold higher: 33 ± 4 nM for the first, 10.7 ± 1.4 nM for the second. The second binds more tightly here.

First: B5
Second: B6
The Kd of the first is 2.4-fold higher: 34 ± 7 nM for the first, 14 ± 5 nM for the second.

First: B7
Second: B8
The Kd of the first is 1.6-fold lower: 6.9 ± 1.6 nM for the first, 10.7 ± 1.8 nM for the second.

B9 and B10 are within error of each other in Kd: 12.5 ± 1 nM for the first, 13.3 ± 0.7 nM for the second.

First: B11
Second: B12
The Kd of the first is 1.6-fold higher: 3.1 ± 0.9 nM for the first, 1.88 ± 0.26 nM for the second.

B13 and B14 are within error of each other in Kd: 15 ± 1.9 nM for the first, 12.4 ± 1.3 nM for the second.

Compared with B15, B16 is 5.7-fold lower in Kd: 14.9 ± 3.5 nM for the first, 2.61 ± 0.28 nM for the second. The second binds more tightly here.

B17 and B18 are within error of each other in Kd: 15.2 ± 1.7 nM for the first, 28 ± 12 nM for the second.

B19 and B20 are within 1.5-fold of each other in Kd: 13.2 ± 1.1 nM for the first, 10.8 ± 1 nM for the second.

First: B21
Second: B22
The Kd of the first is 2.3-fold higher: 24.7 ± 1.5 nM for the first, 10.7 ± 1.3 nM for the second. The second binds more tightly here.

First: B23
Second: B24
The Kd of the first is 1.8-fold higher: 17 ± 4 nM for the first, 9.5 ± 1.8 nM for the second.

First: B25
Second: B26
The Kd of the first is 1.9-fold lower: 7.1 ± 0.7 nM for the first, 13.5 ± 1.7 nM for the second.

First: B27
Second: B28
The Kd of the first is 4.5-fold higher: about 49 nM for the first, 11 ± 1.3 nM for the second. The second binds more tightly here.
